In publication PMC5669352 one finds stoichiometry N data, which are given here for one substance.

The stoichiometry N is a count of units in the complex or per binding partner.

For the assay, the target named is native mapacalcine (Cliona vastifica) (UniProt P86916). Nature of the assay: MALDI-MS.

“native mapacalcine (from UniProt P86916 1-89) (natural protein)”: the stoichiometry N is 2.
